In the supplement of paper PMC12042874:
± gives the uncertainty stated by the source.

Experiment: amyloid nucleation score (Sup35N fusion, yeast selection) (log enrichment); library NNK2; higher = more nucleation; inactive = no reads after selection
Procedure, shortened: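 The nucleation score, computed with DiMSum, is the log enrichment of output over input reads, centred on the mode score of non-aggregating sequences. Sequences with under 100 input reads were dropped. Reads were generated by Illumina sequencing of plasmid inserts from psi-negative yeast with Sup35N fused to peptides of 20 random codons, induced with 100 μM copper sulfate for 24 hours and grown 7 days at 30°C on medium lacking adenine and uracil.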

Substance	amyloid nucleation score
ILHPGSNLPRCRDMCILKGW	-0.226 ± 0.54
TFLSGLCIAACSIMGFNQSS	-1.6 ± 0.78
WFVGFSMAYWNERDAGRPGM	1.8 ± 0.15
DIMYPYWMVR	-0.667 ± 0.76
EWVAVGTDQR	1.25 ± 0.29
LNLILIDFKTSRCVERPFRE	7.052 ± 0.051
DIPPKDLLGVFIDDEIREYC	-0.436 ± 0.76
GEQDDVPRFGYTKACEFLFA	inactive
TISMEVEYCV	-0.1 ± 1
ARVCPCETTSTTVVA	1.23 ± 0.48
LGVVWLS	-0.405 ± 0.3
QGGFMIFDRITGGLRVMNGL	0.263 ± 0.23
HRYLPSG	0.224 ± 0.8
CADAITRHAGTFVAGWSW	0.865 ± 0.17
SFVVRTQMSGCANSFDEKFN	-0.479 ± 1
DLDFIKDLTAKLY	-0.183 ± 1
GVLMCVAVYRFVCMKRSGML	0.039 ± 0.19
RCVWYSGSRLWTYWQVWLMG	0.458 ± 0.8
YYLSNSWVLYFCFGIFVTSQ	1.88 ± 0.094
VDFIKIKRIGPER	-0.709 ± 0.38
MLCVIHE	0.675 ± 0.25
ERGQGKHRNEGVHYNRWCGC	2.15 ± 0.17
ALDWPLICA	-0.07 ± 0.39
VVRVCRQGCLSNLSWCGWGE	-0.1 ± 1
FLNMTIRVLAWFVYTI	inactive

Substance	amyloid nucleation score
IVTLVSDAYSKLTRLMNSVS	-0.561 ± 0.23
DVLVINKLHLRWAGFDARGI	5.05 ± 0.1
DYNSNMSFSRLCTRVTCHSM	inactive
WFMFDFFYF	inactive
FVYVVEGVWEKGIKFFMIFK	-0.913 ± 1.1
FLTLPFLPAHLKKPHKSLLR	-0.083 ± 0.56
ILSCWSCRGRINTY	1.9 ± 0.14
LSCLK	-0.344 ± 0.28
GMLKTLSMMHTLIWYFLWDT	-0.62 ± 0.79
PCYGYQR	-0.024 ± 0.65
GNAQGSTFYVVPFIQYRVFM	6.744 ± 0.035
VFINRFHRVMLRAVIRQGVV	0.31 ± 0.5
INEFCATLQERRMCYLRMKL	0.921 ± 0.74
LTFACSVLL	3.1 ± 0.092
CQLLMFGSMYVHSYERGTYW	2.67 ± 0.064
SDAVFFLLSNGNRPPRAAMS	0.155 ± 0.29
FSFTYQRFSDITCQSTLGLV	-0.705 ± 0.26
QRYGVFAYGRLIRIHCRRLG	0.159 ± 0.29
PISNLHILGFHHLTQHDRTV	1.05 ± 0.3
PMVDRMMDASRWLPLDY	0.109 ± 0.45
SLHFCQTVFFYMQILSMLAC	inactive
TCIFVNDFSMSGWDCMLFY	4.4 ± 0.062
GTTMTPFPRKCFRSVILFVG	1.1 ± 0.3
YLGWVVCFRHCLIGH	0.145 ± 0.56
SHTVTDGWCVV	1.52 ± 0.21

Substance	amyloid nucleation score
CSSRNILDWKFVFFVCYFT	3.41 ± 0.12
YVSSNWRNFRSVSQWWMLHV	1.57 ± 0.1
HYYPLVAIR	0.389 ± 0.49
TVELLGILAHCSFCS	8.247 ± 0.054
VVNLIVKDDPWEGWLKSLVW	2.46 ± 0.18
STRSGGLKQSVPLSRPP	-0.325 ± 0.42
CYRNAT	0.475 ± 0.2
YIVCKDSTSQVYYFSSDNFY	4.09 ± 0.095
YFKFAGV	4.16 ± 0.095
YQARVTMCIPAWTMSECSQC	-1.01 ± 0.76
YSCRIDF	0.8 ± 0.54
AGFSSDGLQVMIIYD	0.379 ± 0.31
TDFFCLTIFFNVEHVISKCI	2.14 ± 0.17
LAGYSHTI	0.406 ± 0.46
ALPITQNCC	-1.07 ± 0.44
RHVRMISHELNEDTCYTCIL	-0.536 ± 1.1
IRRWFRLNNGRM	-0.113 ± 0.79
AWFVYYVYRMFLNVSTSYWK	0.074 ± 0.74
SGINNIWYEDLTLPKWSKG	-0.401 ± 0.55
IHESSSF	-0.47 ± 1.1
PRRNWMLVCTIIFVWNEKEY	0.034 ± 1.1
MTTALDGSLYVWCQCAVDVI	0.379 ± 0.54
ISPMWREWTWSHNWCSFPTS	inactive
SCVYLDCLF	0.25 ± 0.6
FVIFVMNHLWFFWIVWEDRE	-1.26 ± 1.1

Substance	amyloid nucleation score
EDFVLWLMW	-0.641 ± 0.63
SLFGQLSCQASCRSSKDGGN	6.375 ± 0.061
WYRLAFQLELPLFHRSYRRW	0.288 ± 0.37
TGWNDATRY	-0.467 ± 0.49
IWRSRKLHDMYTVVRGVASD	0.182 ± 0.56
VRPCRP	1.49 ± 0.55
LSVGLNKYRNA	-0.919 ± 0.76
HESRGCSHKTNSMCGHLILL	-0.309 ± 0.45
LTCVSAR	1.2 ± 0.16
SALPDSTNRIASVGGISPGS	0.489 ± 0.46
HLENGINIWDKLY	-0.363 ± 1.1
TFDWKTSKPYANKPLRFETS	0.284 ± 0.34
FAIMHFY	-0.711 ± 1.1
ASMLWLLLDELLKWNDGVNN	2.04 ± 0.099
NINDEPPNNHMMHTITHKWT	inactive
LDSLCG	0.546 ± 0.57
RFCFVTIYSHRGVYANRMGM	4.31 ± 0.075
AVYFYRALDVVMCAFVRKGE	6.01 ± 0.068
VYSLFSYLRDTLVV	-0.534 ± 0.74
MQMLIYGWSMCFILGAQV	0.479 ± 0.74
VLLGPSSYRLTYTMGRRRDG	0.685 ± 0.66
ILRLIL	0.531 ± 0.51
YYGILEVG	inactive
LRLTYSWSYSCLLITNQRQN	-0.009 ± 0.65
YPWRYIFLSDPAGLIQTCRF	-1.34 ± 0.54

Substance	amyloid nucleation score
VNLITGIMYI	inactive
TLDGLDS	-0.283 ± 0.25
KERELSTTECCTILCSVLFY	6.852 ± 0.059
SCFIFSCYDTSLQMLVFAVG	-0.591 ± 0.63
YLGNLSPQRLRCFISLWIVQ	-1.49 ± 1.1
IVVVLWTFFDG	-1.09 ± 0.55
TGVYRWSEMSMVMFFFHVEC	-0.226 ± 0.63
ILLNTSYVYLTDSMEFTVGL	2.15 ± 0.14
CMSTDTTLVATMMLQTESA	0.441 ± 0.23
GGNFLVCYVFDDSCHWIMMY	4.56 ± 0.086
IGAQPRDGYN	-0.223 ± 0.49
VLGLSR	0.584 ± 0.51
NIRTKILLGY	0.006 ± 0.44
VFCYRSDMSGTSSGGGYQM	-0.178 ± 0.29
WALLGFLDYKLFLTAEVFSA	-0.498 ± 1.1
LQDAHHSVVCVRQSCYERLG	-0.187 ± 0.65
SSLWTCGFIELRPRVLSMGS	0.327 ± 0.57
RPCFCFSMFYGRKW	0.553 ± 0.8
LGLMLIDLIWLRRYIYSWVR	0.338 ± 0.34
CPNLNTFTLFPELGNLYLHR	0.329 ± 0.8
YVDAEARLFCGLLGLVFGDL	5.47 ± 0.097
IFVFSWRIRMWLLKSLTCG	-0.904 ± 0.78
VANDLQPWLRAVHSCFWYSS	0.896 ± 0.17
EYHSSWVISAPVYLQSATAW	5.23 ± 0.085
GTSLYGFSPTAHVRVSHRGE	0.957 ± 0.47

Substance	amyloid nucleation score
FFQVPSSNLVSLTDRLYSLG	-1.16 ± 0.5
WLWLND	-0.661 ± 1.1
FEKISSAFFGNYGLFMNWLS	-0.441 ± 0.78
VGLISERLVSMSTVA	0.4 ± 0.56
FPAWTDGVVLVRVVGASTEE	-0.132 ± 0.34
SGNKAMWKIIPLT	-0.262 ± 0.27
ATVYMLHALVSDGCQLGD	0.399 ± 0.31
CVLMAMNFRCLNSTETTLLG	inactive
ITFYGTF	inactive
SIVFSLW	1.62 ± 0.14
ILRDVVDLQMHNTWRNRGDQ	3.66 ± 0.063
TYYSLSLVAIMGAR	1.82 ± 0.2
SFSCFVCCDQHKSRGSVWHY	8.683 ± 0.076
RMFWISNKVSIPGPGLEAGN	inactive
GATLGVADRPGKSAGLPWTD	0.998 ± 0.15
YKACRH	3.89 ± 0.055
NHSVYVYMLMALTTWGVLSS	-0.403 ± 0.79
TMGYDSSTVTVFGGSMFLRL	2.56 ± 0.2
FTFYR	1.08 ± 0.41
ADEEFRRFIVPSFLPGSCSS	-0.08 ± 0.39
STNVMLLSFSHMYHSYVLLG	-0.261 ± 0.63
YWWGLENFTYCEDDAVSHKS	0.294 ± 0.8
SMIYIGIFS	5.281 ± 0.031
VGIYDYVLRSC	0.115 ± 0.33
MVLDIFAS	1.19 ± 0.44

Substance	amyloid nucleation score
TSSWRVWAYQSAAANMHTDL	5.01 ± 0.06
VSPLALDQVTVSMVAMGIEG	0.999 ± 0.29
GNLSVTAILWLMRYECLNLS	-0.431 ± 0.64
LSKLNGGSSVTSV	0.665 ± 0.2
KINCLFISLGNRSRVVRTS	0.681 ± 0.37
DSSVQRRLS	0.121 ± 0.56
LTVFTPR	-0.62 ± 0.37
YSQFITGFGNNRHLTLSLAG	0.389 ± 0.5
KFLGYQLPPRDSSSGTF	0.066 ± 0.27
GYAWPRGTSGVA	0.353 ± 0.4
YFSKMS	-0.817 ± 0.43
SECKSRRYIWWHIWYDLS	0.49 ± 0.12
MMDFYRLDLDRTVVVRNRYL	0.389 ± 0.74
CGKLSLLNQVWIVSQPMPGQ	7.57 ± 0.064
PFMCRLIYSELNDYIIELDE	-0.081 ± 0.5
LFIVSDKTFYKGTGCSDFLV	-1.28 ± 1
TVMLFVSLQRCH	inactive
WVIFSLVKWCMFSNDVVWVA	-0.944 ± 0.34
LWKLYLTVSRNLAVGISGGL	inactive
LNYALLVEFCLCLNPDNNSS	8.57 ± 0.055
CIRMNRISLGNSICWCAPNM	7.922 ± 0.047
RSKQRCGTTDSPLAMVSKRV	1.05 ± 0.31
VRGSNV	-0.637 ± 0.33
SLKSYVSVQFELASSVWILE	1.02 ± 0.24
